{
  "source": "the nanobody polyreactivity screen of Harvey et al. (2022)",
  "data": [
    {"experiment": "yeast display, Sf9 membrane polyspecificity reagent, FACS + sequencing; frameworks hold sequencing errors", "method_in_brief": "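Sorting gates, low and high (top ~1%), were placed on anti-HA fluorescence to track expression and on streptavidin fluorescence to track reagent binding. A clone's polyreactivity label is taken from the gate it came out of. The reagent was 10% biotinylated, detergent-solubilized Sf9 membrane, applied for 1 hour at 4 °C to galactose-induced yeast display cells.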", "values": [
      {"sequence": "QVQLVDSGGGLVQAGGTLRLSCAASGFTFIYYAMGWYRQAPGKERELVAAISASGGSTYYADSVKGRFTISRDNAKNTVYLQMNSLKPEDTAVYYCNKYWRKPPAGGYYYWGQGTQVTVSS", "polyreactivity (PSR sort gate)": "high polyreactivity"},
      {"sequence": "QVQLVDSGGGLVQAGGTLRLSCAASGRTIRYNAMAWYRQAPGKERELVAAITGSGGSTYYADSVKGRFTISRDNAKNTVYLQMNSLKPEDTAVYYCARDGYLVYYYDWSYPYDSWGQGTQVTVSS", "polyreactivity (PSR sort gate)": "low polyreactivity"},
      {"sequence": "QVQLVDSGGGLVQAGGTLRLSCGASGLIFYLYAMGWFRQAPGKERELVAAITYSGGSTRYADSVKGRFTISRDNAKNTVYFQKNSLKPEDTAVYYCNAAGTAPTELDYWGQGSQVTVSS", "polyreactivity (PSR sort gate)": "low polyreactivity"},
      {"sequence": "QVQLVDSGGGLVQAGGTLSLSCAASGRTFWWYARGWSRQAPGTERELVDAITNFGSTNYADSVKGRFSISRDNAKNTVYLQKNSLKPEDTAVYYCAALTRCWYGGFYQYYYLGQGTQVTVSS", "polyreactivity (PSR sort gate)": "high polyreactivity"},
      {"sequence": "QVQLVDSGGGLVQAGPSLRLSCAASGSTFYLYAMGWYRQAPGKERELVAAITFRGSRTYYADSVKGRFTISRDNAKNTVYFQMNSLKPEDTAVYYCAADSYIERAYGSLGVWRYDYWGQGTQVTVSS", "polyreactivity (PSR sort gate)": "low polyreactivity"},
      {"sequence": "QVQLVDSGGGLVQAGVSLRLSCAASGSIFLLNAMGWYRQATGKERELVAAISWGGGSTYYADSVKGRFTISRDNAKNTVYLQMNSLKPEDTAVDYCNASVTLGQEVDYWGLGTQVTVSS", "polyreactivity (PSR sort gate)": "low polyreactivity"},
      {"sequence": "QVQLVDSGGGLVQEGGSLRLSCAASGSIFLIYAMGWYRQAPGKERELVAAITGGGTTNYADSVKGRFTISRDNAKNTVYLQMNSLKPEDTAVYYCNTLYLVYLYWTSPTPSDLFDYWGQGTQVTVSS", "polyreactivity (PSR sort gate)": "low polyreactivity"},
      {"sequence": "QVQLVDSGGGLVQSGGILRLSCAASGRTFRYYAMGSYRQAPGKERELVAAISSGGSTNYADSVKGRFTISRDNAKNTVYLQMNSLKPEDTAVYYCAALWSGNKFKYWGQGSQVTVSS", "polyreactivity (PSR sort gate)": "low polyreactivity"},
      {"sequence": "QVQLVDSGGGLVQSGGSLSLSCAASGFNFWPYAMGWYREAPGKEREFVAAITRTGGSTSYADSVKGRFTISRDNAKNTVYLQINSLKPEDTAVYYCAATSYYRTNYGLVFQYRRNYGGQGTQVTVSS", "polyreactivity (PSR sort gate)": "high polyreactivity"},
      {"sequence": "QVQLVDSGGRLLQAGGSLRLSSAASGLIFKRYAMGWYIQAPGKERELDAAITSGSSTNYADSVKGRFTISRDNAKNTVYLQMNSLKPEDTAVYYCARDVYFSPYYRRSFQWRFDYWGQGTQVTVSS", "polyreactivity (PSR sort gate)": "high polyreactivity"},
      {"sequence": "QVQLVDSGGRLVQAGGRLRLTCAASGFILSYNMGWYRQAPGKERELVATISYNDVSTYYADSVKGRFTISRDNAKNTVYLQMNSLKPEDTAVDYCNAQFPIITRRGYDYWGQGTQVNVSS", "polyreactivity (PSR sort gate)": "high polyreactivity"},
      {"sequence": "QVQLVDSGGRLVQAGGSLRLSCSASGIIIPSYAMGWYRQAPGKERELVAAISGRGGRTYYSDSVKGRFTISRDNAKNSVYLQMNSLKPEDTAVYYCAASGTSSSRKSYYWGQGTQVTVSS", "polyreactivity (PSR sort gate)": "high polyreactivity"},
      {"sequence": "QVQLVDSGGVLVQAGGSLRLSCAASGGTFRTYAMGWYRQAPGKERELVAAITWRGGSTYYADSVKGRFTISRDNAKNTVYLQMNSLKPEDTAVYNCAARVAYQWSFYKYDYWGQGTQVTVSS", "polyreactivity (PSR sort gate)": "high polyreactivity"},
      {"sequence": "QVQLVDSGGVLVQAVGSLRLSCAASGLIFYSNAMGWYRQAPGKERELVATISWSGGSTYYADSVKGRFTSSRDNAKNTVYLQMNSLTPEDTAVYYCAAVTHPAWAVEYDYWGQGTQVTVSS", "polyreactivity (PSR sort gate)": "high polyreactivity"},
      {"sequence": "QVQLVDSGRGLVQAGGSLRLSCAASGSIFGKYAMGWYREAPGKERELVAAISKGGGRTSYADSVKGRFTISRDNAKNTVYLQMNSLKPEDTAVYYCNVAQNYWAGLYDYWGQGTQVTVSS", "polyreactivity (PSR sort gate)": "high polyreactivity"},
      {"sequence": "QVQLVDSGVGLVQAGGSLRLSCAASGRTFTTNTKGWYRDATWKERELVAAITWSGASTYYADSVKGRFTISRDNAKNTVYLQMNSLKPEDTAVYYCAAERTPSYRAYDYWGQGTQVTVSS", "polyreactivity (PSR sort gate)": "low polyreactivity"},
      {"sequence": "QVQLVDSVGGLVEAGGILRLSCAASGNTFGRNAMGWYRQEPGKESELVAAISFSGSRPYYADSVKGRFTISRDNAKYTVYLQRNSLKPEDTAVYYCNKRGADWTGFFYYQYDFWGQGTQVTVSS", "polyreactivity (PSR sort gate)": "low polyreactivity"},
      {"sequence": "QVQLVDTGGGLVQAGGSLRLSCSASGSNFEYNDMVWYRHAHGKERELVAAISSGGDTNYADSVKGRFTISRDNAKNTVYLQKNSLKAEDTAVYYCNAEGLILYDYWGQGTQVTVSS", "polyreactivity (PSR sort gate)": "low polyreactivity"},
      {"sequence": "QVQLVEAAGGLVQAGGSLRLSCAASGSIFRNNAMGWYSPAPGKARELVAVISRRSGNTYYADSVKGRLTISRENAKNPVYLLMNSLKPEDSAVYYCAADYSNSSIRGDYWGQGTEVTVSS", "polyreactivity (PSR sort gate)": "low polyreactivity"},
      {"sequence": "QVQLVEACGGLVQAGGSLRLSCAASRSIFPYNAMGWYRQAPGKDRELVATMSSGGSTNYADSVKGRFTISRDNAKNTVYLQKNSLKPEDTAVYYCNAEAAYYPLWMDYWGQGTQVTVSS", "polyreactivity (PSR sort gate)": "low polyreactivity"},
      {"sequence": "QVQLVEAGGGFVQAGGRLRLSCAASGSIFTLNTRGWYSPAPGKEREWVAAMTGSGGITYSADSVKGRFTISRDKAKKTVYLQLNSLKPEETAVYYCAADTGYVHAGYWGQGTQVTVSS", "polyreactivity (PSR sort gate)": "low polyreactivity"},
      {"sequence": "QVQLVEAGGGFYQPGGSLRLSCAASGRTFSYYASGWYRQAPGKERELVAAITDSGDSTYYADSVKGRFTISRDNANNTVYLQMKSLKPEDTAVYDCAATTYSWYDYWGQGTQVTVSS", "polyreactivity (PSR sort gate)": "high polyreactivity"},
      {"sequence": "QVQLVEAGGGLVQAGGSLRLSCAASGLIIAKYAMGWYRQAPGKERELVAGITSGGGTSYADSVKGRFTISRDNAKNTVYLQMNSLKPEDTAVNYCNAVVVGWFYQYDYWGQGTQVTVSS", "polyreactivity (PSR sort gate)": "low polyreactivity"},
      {"sequence": "QVQLVEAGGGLVQAGGSLRLSCAASGNIFLYYAMGWYRQAPGKEREFVADIDSSGASTYYADSVKGRFTISRDNAKNTVYLQMNSLKPEDTAVYYCAAEFHWWYAGYDYGYWGQGTQVTVSS", "polyreactivity (PSR sort gate)": "low polyreactivity"},
      {"sequence": "QVQLVEAGGGLVQAGGSLRLSCAASGRTFYQNAMGWNIQAPGKERELVAAISRSGGSTYYADSVKGRFTISRDNAKITVYLQMTSLKPEDTAVYYCAADPRSYGGGYDYWGQGTQVTVSS", "polyreactivity (PSR sort gate)": "high polyreactivity"},
      {"sequence": "QVQLVEAGGGLVQAGGSLRLSCAASGSIFVGNAMGWYRQAPGKERELVAAISSSGGRKFYADSVKGRFTISRDNAKNTVYLQMISLKPEDTAVYYCAAVYTHWQQRMDYWGQGTQVTVSS", "polyreactivity (PSR sort gate)": "high polyreactivity"},
      {"sequence": "QVQLVEAGGGLVQAGGSLRLSCAASGSTFPYYTMGGYRQAPGKDRELVAAITWRGGRTYYADSVKGRFTISRDNAKNTVYLQMNSLKPEDTAVYYCAAKQKHTQQTGWKYEYWGQGTQVTVSS", "polyreactivity (PSR sort gate)": "high polyreactivity"},
      {"sequence": "QVQLVEAGGGLVQAGGSLRLSCAASGSTFRWNAMGWYRQAPGKERELVAAITRSGGSTYYADSVKGRFTISRDNAKNTFYLQMNSLKPEDTAVYYCAAGYFTARRIRYDYWGQGTQVTVSS", "polyreactivity (PSR sort gate)": "high polyreactivity"},
      {"sequence": "QVQLVEAGGGLVQAGGSLRLSCAASGSTFYKNAMGWYRPAAGKERELVAGISRRGGPTYYADSVKGRFTISRDKAMNTVYLQMNSLNPEDTAVYYCNTGHEEDEYDYWGQGTQVTVSS", "polyreactivity (PSR sort gate)": "low polyreactivity"},
      {"sequence": "QVQLVEAGGGLVQAGGSLRLSCADCVSTGVNTMGWYRQAPGKERELVDAIRATGGSTYYADSVKGRFTISRDNAKNTVYLQMNSLKPEDTAVYYCAAKWFRLYLRQDRYYYWGQGTQVTVSS", "polyreactivity (PSR sort gate)": "high polyreactivity"},
      {"sequence": "QVQLVEAGGGLVQAGGTLRLSCAASGYTFIYYAMGWYRQAPGKERELVATISIDGSTNYADSVKRRFTISRDNAKNTVYLQMNSLKPEDTAVYYCNRERYEDYDYWGQGTQVTVSS", "polyreactivity (PSR sort gate)": "high polyreactivity"},
      {"sequence": "QVQLVEKGGGLVQAGGSLRLSCAASGSTFRNNAMGRYREAPGKERELVAAIPYSGDSTSYADSVKGRFTISRDNAKNTVYLQMNSLKPEDTAVYYCNAAIDGIYLGSYTAYGYDSWGQGTQVTVSS", "polyreactivity (PSR sort gate)": "low polyreactivity"},
      {"sequence": "QVQLVEKGGGLVQAGGSLRLSCAASGYIFRFYTKRWYRQAPGKERELVASITRSGGSTYYADSVKGRFTFSRENAKNTVYLQKNSLKPEDTAVYYCNARKTVGMDYWGQGTQVTVSS", "polyreactivity (PSR sort gate)": "low polyreactivity"},
      {"sequence": "QVQLVESAAGLVQAGGSLRLSCAASGIIFPRNVMGWYRQAPGKERELVAAITYSGGRTYYADSVKGRFTISRDNAKNTVYLQMNSLKPEDTAVYYCNADFRSQPYDYWGQGTQVTVSS", "polyreactivity (PSR sort gate)": "low polyreactivity"},
      {"sequence": "QVQLVESAAGLVQAGGSLRLSCADSGSTIYRYAMGWYRQAPGKERELVAAISTTGGSTFYADSVKGRFTISRDNAKNTVYLQMNSLKPEDTAVYYCNAYYRGTYDYWGQGTQVTVSS", "polyreactivity (PSR sort gate)": "high polyreactivity"},
      {"sequence": "QVQLVESAGALVQAGGSLRLSCAASGRIFSVYAMGWYRQAPGKERELVATITYNGGSTYYADSVKGRFTISRDNAKNTVYLQMNSLKPEDTAVYYCAADWTYVRFDYWGQGTQVTVSS", "polyreactivity (PSR sort gate)": "low polyreactivity"},
      {"sequence": "QVQLVESAGCLVQAGGSLRLSCDASGIIFKVYAMGWYSQAPGKEREWVAAISWSGSSTYYADTVKGRFTISRDKAKNTVYLQMNSLKPEDTAVYYCAAYSVARSMGYWGQGTQVTVSS", "polyreactivity (PSR sort gate)": "high polyreactivity"},
      {"sequence": "QVQLVESAGGIVQAGGSLRLSCAASGFIFVRNAIGWYRQAPGKEREFVAAINSSGGRTYYADSVKGRFTISRDNAKNTVYLQMNSLKPEDPAVYYCAARPQPKKFYYWGLGTQVTVSS", "polyreactivity (PSR sort gate)": "high polyreactivity"},
      {"sequence": "QVQLVESAGGLVQAAGSLRLSCAASGFVFYSYAMGWYRQAPGKERELVAVISRSGGSTYYADSVKGRFTISRDNAKNTVYFQMNSLKPEDTAVYYCAAKYHGQERGAPPFYYWGQGTQVTVSS", "polyreactivity (PSR sort gate)": "high polyreactivity"},
      {"sequence": "QVQLVESAGGLVQAAGSLRLSCDASGRIFWYNAMGWYRQEPGKERELVAAISSGGSTSYADSVKGRFTISRDNAKNTVYLQMNSLKPEDTAVYYCDKDDERKQGQYPPYDSWGQGTQVTVSS", "polyreactivity (PSR sort gate)": "low polyreactivity"},
      {"sequence": "QVQLVESAGGLVQAGASLRLSCAASGIIFTRYAMGWYRQPPGKESELVAAITRSSGSTYYADSVKGRFTISRDNAKNTVYLQMNSLKPEDSAVYYCAADWVSRYQARPYFSAFNYWGQGTQVTVSS", "polyreactivity (PSR sort gate)": "high polyreactivity"},
      {"sequence": "QVQLVESAGGLVQAGASLRLSCAASGSIFGGYAMGWYRQAPGTERELVAAISSGDSTYYADSVKGRFTISRDNAKNTVYLQMNSLKPEDTAVYYCARRYTRSYYKLGKLNYWGQGTQVTVSS", "polyreactivity (PSR sort gate)": "high polyreactivity"},
      {"sequence": "QVQLVESAGGLVQAGGILRLRCAASGFTFTSNAMGWYRQAPGKEREFVADISNIGGDTTYADSVKGRFTISRDNAKNTVYLQMNSLNPEDTAVYYCNADFAFIENDYCGQGTQVTVSS", "polyreactivity (PSR sort gate)": "low polyreactivity"}
    ]}
  ]
}
